Measurements published in patent US20050244862A1.
One block for each substance: values may come before it.

What was measured:
Experiment in all cases: cell-based or functional assay
[1] = target: NK2 tachykinin receptor (UniProt P21452)
[2] = target: T1, NK3 tachykinin receptor (UniProt P29371)
T1 sequence (looked up): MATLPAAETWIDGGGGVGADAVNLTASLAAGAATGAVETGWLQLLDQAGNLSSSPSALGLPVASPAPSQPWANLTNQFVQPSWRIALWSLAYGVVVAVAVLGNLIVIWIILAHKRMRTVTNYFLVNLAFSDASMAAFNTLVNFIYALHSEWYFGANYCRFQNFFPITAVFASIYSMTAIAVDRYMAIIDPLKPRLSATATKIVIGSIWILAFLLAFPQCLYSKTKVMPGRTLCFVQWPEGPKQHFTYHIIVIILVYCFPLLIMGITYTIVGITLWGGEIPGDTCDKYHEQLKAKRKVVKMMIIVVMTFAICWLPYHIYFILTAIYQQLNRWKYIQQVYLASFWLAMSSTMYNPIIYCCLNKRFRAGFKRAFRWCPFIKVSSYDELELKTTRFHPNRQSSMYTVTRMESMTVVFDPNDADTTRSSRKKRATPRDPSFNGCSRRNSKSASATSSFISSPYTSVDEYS

[3] = target: Gq-i5 chimeric G-protein
[4] = target: Gq-o5 chimeric G-protein
[5] = target: NK1 tachykinin receptor (UniProt P25103)
[6] = target: Insulin receptor

m4 muscarinic receptor, sequence (P08173 whole entry): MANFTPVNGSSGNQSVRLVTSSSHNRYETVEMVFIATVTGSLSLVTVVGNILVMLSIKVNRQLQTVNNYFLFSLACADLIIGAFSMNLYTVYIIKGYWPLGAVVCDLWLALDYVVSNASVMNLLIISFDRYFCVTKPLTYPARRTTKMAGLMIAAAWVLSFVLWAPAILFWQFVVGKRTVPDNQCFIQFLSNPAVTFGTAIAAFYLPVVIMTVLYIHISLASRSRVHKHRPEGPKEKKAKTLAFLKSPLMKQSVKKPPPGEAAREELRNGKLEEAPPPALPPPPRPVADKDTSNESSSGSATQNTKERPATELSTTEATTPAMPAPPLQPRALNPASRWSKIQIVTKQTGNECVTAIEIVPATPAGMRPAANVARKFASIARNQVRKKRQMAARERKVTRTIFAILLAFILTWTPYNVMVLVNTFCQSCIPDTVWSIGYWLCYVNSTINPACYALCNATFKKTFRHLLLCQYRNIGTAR
NK2 tachykinin receptor, sequence (P21452 whole entry): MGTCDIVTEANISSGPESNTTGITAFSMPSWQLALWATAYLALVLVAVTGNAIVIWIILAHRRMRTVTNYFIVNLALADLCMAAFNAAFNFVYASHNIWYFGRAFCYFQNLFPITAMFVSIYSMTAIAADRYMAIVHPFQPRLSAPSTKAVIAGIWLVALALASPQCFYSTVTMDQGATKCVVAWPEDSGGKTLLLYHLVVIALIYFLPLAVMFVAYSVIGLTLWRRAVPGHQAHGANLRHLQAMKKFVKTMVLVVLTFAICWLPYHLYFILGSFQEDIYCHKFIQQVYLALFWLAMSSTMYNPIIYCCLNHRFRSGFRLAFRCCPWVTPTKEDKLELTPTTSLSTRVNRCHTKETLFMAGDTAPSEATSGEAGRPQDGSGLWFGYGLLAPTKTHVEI
NK1 tachykinin receptor, sequence (P25103 whole entry): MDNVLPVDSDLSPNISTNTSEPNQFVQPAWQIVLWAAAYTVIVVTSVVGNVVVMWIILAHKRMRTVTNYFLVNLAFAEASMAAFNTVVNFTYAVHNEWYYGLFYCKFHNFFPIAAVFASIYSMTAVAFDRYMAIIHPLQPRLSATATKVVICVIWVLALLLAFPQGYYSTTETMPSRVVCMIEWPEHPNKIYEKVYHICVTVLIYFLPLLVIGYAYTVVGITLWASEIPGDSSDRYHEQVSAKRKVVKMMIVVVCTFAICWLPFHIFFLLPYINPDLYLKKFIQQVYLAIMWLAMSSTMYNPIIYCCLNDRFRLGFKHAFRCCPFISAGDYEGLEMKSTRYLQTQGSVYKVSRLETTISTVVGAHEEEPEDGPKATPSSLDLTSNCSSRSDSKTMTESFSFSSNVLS

EC50, amplification assay (β-galactosidase), Single Receptor Format [1]: 65 nM | EC50, amplification assay (β-galactosidase), Single Receptor Format [2]: 164 nM
Substance: substance P (from UniProt P20366 58-68) (peptide)

ED50 of carbachol for the β-galactosidase response of cells co-expressing m4 and Gq-i5 [3]: 37 nM | ED50 of carbachol for the β-galactosidase response of cells co-expressing m4 and Gq-o5 [4]: 32 nM
Substance: m4 muscarinic receptor (from UniProt P08173 1-479)

EC50, amplification assay (β-galactosidase), Single Receptor Format [5]: 14 nM | EC50, amplification assay (β-galactosidase), Single Receptor Format [2]: 11 nM
Substance: neurokinin A (from UniProt P20366 98-107) (peptide)

EC50, amplification assay (β-galactosidase), Single Receptor Format [6]: 0.08 nM
Substance: Insulin (ligand)
